{
  "source": "paper PMC12136491",
  "about": "“Establishment of an efficient one-step enzymatic synthesis of cyclic-2,3-diphosphoglycerate” (Frontiers in Microbiology, 2025)",
  "proteins": {"B1": {"name": "cyclic-2,3-diphosphoglycerate synthetase from Methanothermus fervidus, recombinant, without affinity tag (enzyme, UniProt O93732 1-460, looked up)", "chain": "MGETKKMICLVDGEHYFPVVKDSIEILDDLEHIDVVAVVFIGGTEKLQIEDPKEYSEKLGKPVFFGPDPKKIPYDVIKKCVKKYNADIVMDLSDEPVVDYTKRFRIASIVLKEGAVYQGADFKFEPLTEYDVLEKPSIKIIGTGKRIGKTAVSAYAARVIHKHKYNPCVVAMGRGGPREPEIVEGNKIEITAEYLLEQADKGVHAASDHWEDALMSRILTVGCRRCGGGMLGDTFITNVKRGAEIANKLDSDFVIMEGSGAAIPPVKTNRQIVTVGANQPMININNFFGPFRIGLADLVIITMCEEPMATTEKIKKVEKFIKEINPSANVIPTVFRPKPVGNVEGKKVLFATTAPKVVVGKLVNYLESKYGCDVVGVTPHLSNRPLLRRDLKKYINKADLMLTELKAAAVDVATRVAIEAGLDVVYCDNIPVVIDESYGNIDDAIIEVVEMAIDDFKNNR", "notes": "cyclic 2,3-diphosphoglycerate synthetase (cdpgs gene, 1,383 bp) of Methanothermus fervidus, Mfer_0077, CAA70986; calculated molecular mass 50.7 kDa; codon-optimized gene, no tag; also called MfcDPGS; cDPGS"}},
  "molecular_target": "the molecule itself",
  "assay": "SEC; native molecular mass; Superose Increase 10/300 column, 50 mM MES/KOH (pH 6.5), 400 mM KCl, flow rate 0.5 mL/min, 5 mg of protein loaded",
  "note": "Values joined by “and” are separate entries in the source; they are usually repeats but may differ in a detail not shown here. Equal entries are not always repeated.",
  "data": [
    {"protein": "B1", "values": [
      {"measurement": "stoichiometry N", "value": "2 and 4"}
    ]}
  ]
}
